The text below walks through data of patent publication US20250002543A1.

To fix the notation:
B1: FpL_C3 G21R (designed binder)
chain: ETPEEPKEEVTIKVNLIFADRKIQTAEFKGTFEEATAKAYAYANLLAKENGEYTADLEDGGNTINIKFAGHHHHHH
B2: FpL_C3 N62R (designed binder)
chain: ETPEEPKEEVTIKVNLIFADGKIQTAEFKGTFEEATAKAYAYANLLAKENGEYTADLEDGGRTINIKFAGHHHHHH
B3: FpL_C3 N62W (designed binder)
chain: ETPEEPKEEVTIKVNLIFADGKIQTAEFKGTFEEATAKAYAYANLLAKENGEYTADLEDGGWTINIKFAGHHHHHH
B4: FpL_C3 G51V (designed binder)
chain: ETPEEPKEEVTIKVNLIFADGKIQTAEFKGTFEEATAKAYAYANLLAKENVEYTADLEDGGNTINIKFAGHHHHHH
B5: FpL_C3 N62Y (designed binder)
chain: ETPEEPKEEVTIKVNLIFADGKIQTAEFKGTFEEATAKAYAYANLLAKENGEYTADLEDGGYTINIKFAGHHHHHH
B6: FpL_C3 N62H (designed binder)
chain: ETPEEPKEEVTIKVNLIFADGKIQTAEFKGTFEEATAKAYAYANLLAKENGEYTADLEDGGHTINIKFAGHHHHHH
B7: FpL_C4KR amino acid substitution mutant Lys(Arg)7Gln (designed binder)
chain: ETPEEPQEEVTIRVNLIFADGRTQTAEFRGTFEEATAEAYRYADLLARVNGEYTADLEDGGYTINIRFAGHHHHHH
B8: FpL_C4KR amino acid substitution mutant Lys(Arg)29Ile (designed binder)
chain: ETPEEPREEVTIRVNLIFADGRTQTAEFIGTFEEATAEAYRYADLLARVNGEYTADLEDGGYTINIRFAGHHHHHH
B9: FpL_C4KR amino acid substitution mutant Lys(Arg)29Val (designed binder)
chain: ETPEEPREEVTIRVNLIFADGRTQTAEFVGTFEEATAEAYRYADLLARVNGEYTADLEDGGYTINIRFAGHHHHHH
B10: FpL_C4KR amino acid substitution mutant Lys(Arg)13Val (designed binder)
chain: ETPEEPREEVTIVVNLIFADGRTQTAEFRGTFEEATAEAYRYADLLARVNGEYTADLEDGGYTINIRFAGHHHHHH
B11: FpL_C4KR amino acid substitution mutant Lys(Arg)29Pro (designed binder)
chain: ETPEEPREEVTIRVNLIFADGRTQTAEFPGTFEEATAEAYRYADLLARVNGEYTADLEDGGYTINIRFAGHHHHHH
B12: FpL_C4KR amino acid substitution mutant Lys(Arg)22Thr (designed binder)
chain: ETPEEPREEVTIRVNLIFADGTTQTAEFRGTFEEATAEAYRYADLLARVNGEYTADLEDGGYTINIRFAGHHHHHH
B13: FpL_C3KX 9e (designed binder)
chain: ETPGESAEEVTIRVNLIFADGRIQTAEFIGTFEEATAEAYAYAHLLARDYGEFTADLEDGGYTLNIRFVGHHHHHH
B14: FpL_C3KX 10a (designed binder)
chain: ETPGESAEEVTIRVNLIFADGRRQTAEFIGTFEEATAEAYAYARLLAHDYGEFTADLEDGGYTLNIRFVGHHHHHH
B15: FpL_C3KX 9d (designed binder)
chain: ETPGESAEEVTIRVNLIFADGRIQTAEFIGTFEEATAEAYAYARLLARDYGEFTADLEDGGYTLNIRFVGHHHHHH
B16: FpL_C3KX 9a (designed binder)
chain: ETPGESAEEVTIRVNLIFADGRRQTAEFIGTFEEATAEAYAYARLLARDYGEFTADLEDGGYTINIRFVGHHHHHH
B17: FpL_C3KX 9c (designed binder)
chain: ETPGESAEEVTIRVNLIFADGRRQTAEFIGTFEEATAEAYAYANLLARDYGEFTADLEDGGYTLNIRFVGHHHHHH
B18: FpL_C3KX 9b (designed binder)
chain: ETPGESAEEVTIRVNLIFADGRRQTAEFIGTFEEATAEAYAYAHLLARDYGEFTADLEDGGYTINIRFVGHHHHHH
B19: FpL_C3KX 10b (designed binder)
chain: ETPGESAEEVTIRVNLIFADGRRQTAEFIGTFEEATAEAYAYAHLLAHDYGEFTADLEDGGYTLNIRFVGHHHHHH
B20: FpL_C3KX 7e amino acid substitution mutant Glu34Asp (designed binder)
chain: ETPGESAEEVTIRVNLIFADGRIQTAEFIGTFEDATAEAYAYANLLARDYGEFTADLEDGGYTINIRFVGHHHHHH
B21: FpL_C3KX 7e amino acid substitution mutant Glu34Leu (designed binder)
chain: ETPGESAEEVTIRVNLIFADGRIQTAEFIGTFELATAEAYAYANLLARDYGEFTADLEDGGYTINIRFVGHHHHHH
B22: FpL_C3KX 7e amino acid substitution mutant Asn15Val (designed binder)
chain: ETPGESAEEVTIRVVLIFADGRIQTAEFIGTFEEATAEAYAYANLLARDYGEFTADLEDGGYTINIRFVGHHHHHH
B23: FpL_C3KX 7e amino acid substitution mutant Glu34Phe (designed binder)
chain: ETPGESAEEVTIRVNLIFADGRIQTAEFIGTFEFATAEAYAYANLLARDYGEFTADLEDGGYTINIRFVGHHHHHH
B24: FpL_C3KX 7d (designed binder)
chain: ETPGESAEEVTIRVNLIFADGRIQTAEFIGTFEEATAEAYAYANLLARDYGDFTADLEDGGYTINIRFAGHHHHHH
B25: FpL_C3KX 7d_E33V (designed binder)
chain: ETPGESAEEVTIRVNLIFADGRIQTAEFIGTFVEATAEAYAYANLLARDYGDFTADLEDGGYTINIRFAGHHHHHH
B26: FpL_C3KX 7d_I23L (designed binder)
chain: ETPGESAEEVTIRVNLIFADGRLQTAEFIGTFEEATAEAYAYANLLARDYGDFTADLEDGGYTINIRFAGHHHHHH
B27: FpL_C3KX 7d_N44H (designed binder)
chain: ETPGESAEEVTIRVNLIFADGRIQTAEFIGTFEEATAEAYAYAHLLARDYGDFTADLEDGGYTINIRFAGHHHHHH
B28: FpL_C3KX 7d_E8R (designed binder)
chain: ETPGESAREVTIRVNLIFADGRIQTAEFIGTFEEATAEAYAYANLLARDYGDFTADLEDGGYTINIRFAGHHHHHH
B29: FpL_C3KX 7d_K38H (designed binder)
chain: ETPGESAEEVTIRVNLIFADGRIQTAEFIGTFEEATAHAYAYANLLARDYGDFTADLEDGGYTINIRFAGHHHHHH
B30: FpL_C3KX 7d_K48H (designed binder)
chain: ETPGESAEEVTIRVNLIFADGRIQTAEFIGTFEEATAEAYAYANLLAHDYGDFTADLEDGGYTINIRFAGHHHHHH
B31: FpL_C3KX 7d_N44R (designed binder)
chain: ETPGESAEEVTIRVNLIFADGRIQTAEFIGTFEEATAEAYAYARLLARDYGDFTADLEDGGYTINIRFAGHHHHHH
B32: FpL_C3KX 7d_K38L (designed binder)
chain: ETPGESAEEVTIRVNLIFADGRIQTAEFIGTFEEATALAYAYANLLARDYGDFTADLEDGGYTINIRFAGHHHHHH
B33: FpL_C3KX 7d_P6A (designed binder)
chain: ETPGEAAEEVTIRVNLIFADGRIQTAEFIGTFEEATAEAYAYANLLARDYGDFTADLEDGGYTINIRFAGHHHHHH
B34: FpL_C3KX 7d_G21R (designed binder)
chain: ETPGESAEEVTIRVNLIFADRRIQTAEFIGTFEEATAEAYAYANLLARDYGDFTADLEDGGYTINIRFAGHHHHHH
B35: FpL_C3KX 7d_Y53S (designed binder)
chain: ETPGESAEEVTIRVNLIFADGRIQTAEFIGTFEEATAEAYAYANLLARDYGDSTADLEDGGYTINIRFAGHHHHHH
B36: FpL_C3KX 7d_N50M (designed binder)
chain: ETPGESAEEVTIRVNLIFADGRIQTAEFIGTFEEATAEAYAYANLLARDMGDFTADLEDGGYTINIRFAGHHHHHH
B37: FpL_C3KX 7d_E52Y (designed binder)
chain: ETPGESAEEVTIRVNLIFADGRIQTAEFIGTFEEATAEAYAYANLLARDYGYFTADLEDGGYTINIRFAGHHHHHH
B38: FpL_C3KX 7d_E8G (designed binder)
chain: ETPGESAGEVTIRVNLIFADGRIQTAEFIGTFEEATAEAYAYANLLARDYGDFTADLEDGGYTINIRFAGHHHHHH
B39: FpL_C3KX 7d_I23F (designed binder)
chain: ETPGESAEEVTIRVNLIFADGRFQTAEFIGTFEEATAEAYAYANLLARDYGDFTADLEDGGYTINIRFAGHHHHHH

The first assay has as its target immunoglobulin immobilized on IgG Sepharose 6 Fast Flow (manufactured by Cytiva). As to the kind of experiment: IgG Sepharose 6 Fast Flow column; linear gradient 0.1 M citrate pH 6.5 to pH 2.2; pH at the peak of the eluted binding protein.
As to B1, the Elution pH is 3.4 pH.

Consider B2, for which the Elution pH was determined as 3 pH.

With B3, the Elution pH is 3 pH.

As for B4, the Elution pH amounted to 3.4 pH.

In turn, B5 had an Elution pH of 3 pH.

B6: the Elution pH is 3 pH.

The molecule B7 yielded an Elution pH of 3 pH.

In turn, B8 had an Elution pH of 3.1 pH.

Take B9: the Elution pH was determined as 3.1 pH.

As for B10, the Elution pH was determined as 3.1 pH.

The molecule B11 displayed an Elution pH of 3.2 pH.

Consider B12, for which the Elution pH turned out to be 3.2 pH.

A further assay concerns the target human antibody (gamma globulin preparation, manufactured by The Chemo-Sero-Therapeutic Research Institute) (human). As to the kind of experiment: ELISA; human gamma globulin immobilised; acid treatment 50 mM buffer pH 3.2, 25 C, 5 min; elution rate = 1 - remaining binding activity. (In an ELISA, binding on a coated surface is turned into a signal by an enzyme label.)
In the case of B13, the Elution rate [%] stood at 68%.

Take B14: the Elution rate [%] amounted to 75%.

B15: the Elution rate [%] amounted to 63%.

Molecule B16 gave an Elution rate [%] of 70%.

Molecule B17 registered an Elution rate [%] of 69%.

B18 registered an Elution rate [%] of 68%.

As to B19, the Elution rate [%] stood at 67%.

The target is the same in another assay. The description is as above. This is another data set of the same source.
Molecule B20 came in with an Elution rate [%] of 46%.

On to B21, for which the Elution rate [%] was found to be 51%.

Molecule B22 yielded an Elution rate [%] of 29%.

Molecule B23 gave an Elution rate [%] of 64%.

The target is the same in the next assay. In words: ELISA; human gamma globulin immobilised; acid treatment 50 mM buffer pH 3.0, 25 C, 15 min; elution rate = 1 - remaining binding activity.
Take B24: the Elution rate [%] stood at 78%.

Turning to B25, the Elution rate [%] is 86%.

B26 showed an Elution rate [%] of 82%.

B27 displayed an Elution rate [%] of 82%.

Regarding B28, the Elution rate [%] is 82%.

As to B29, the Elution rate [%] turned out to be 86%.

In the case of B30, the Elution rate [%] stood at 85%.

For B31, the Elution rate [%] was found to be 82%.

Turning to B32, the Elution rate [%] is 88%.

Turning to B33, the Elution rate [%] stood at 82%.

In turn, B34 had an Elution rate [%] of 82%.

For B35, the Elution rate [%] is 83%.

Consider B36, for which the Elution rate [%] is 86%.

As to B37, the Elution rate [%] turned out to be 85%.

In turn, B38 had an Elution rate [%] of 80%.

B39 came in with an Elution rate [%] of 81%.
